Source: IntAct's records for PubMed 25465129

Biological target: ab1ip_mouse Apbb1ip (UniProt Q8R5A3)
Sequence of UniProt Q8R5A3 (Q8R5A3 whole entry): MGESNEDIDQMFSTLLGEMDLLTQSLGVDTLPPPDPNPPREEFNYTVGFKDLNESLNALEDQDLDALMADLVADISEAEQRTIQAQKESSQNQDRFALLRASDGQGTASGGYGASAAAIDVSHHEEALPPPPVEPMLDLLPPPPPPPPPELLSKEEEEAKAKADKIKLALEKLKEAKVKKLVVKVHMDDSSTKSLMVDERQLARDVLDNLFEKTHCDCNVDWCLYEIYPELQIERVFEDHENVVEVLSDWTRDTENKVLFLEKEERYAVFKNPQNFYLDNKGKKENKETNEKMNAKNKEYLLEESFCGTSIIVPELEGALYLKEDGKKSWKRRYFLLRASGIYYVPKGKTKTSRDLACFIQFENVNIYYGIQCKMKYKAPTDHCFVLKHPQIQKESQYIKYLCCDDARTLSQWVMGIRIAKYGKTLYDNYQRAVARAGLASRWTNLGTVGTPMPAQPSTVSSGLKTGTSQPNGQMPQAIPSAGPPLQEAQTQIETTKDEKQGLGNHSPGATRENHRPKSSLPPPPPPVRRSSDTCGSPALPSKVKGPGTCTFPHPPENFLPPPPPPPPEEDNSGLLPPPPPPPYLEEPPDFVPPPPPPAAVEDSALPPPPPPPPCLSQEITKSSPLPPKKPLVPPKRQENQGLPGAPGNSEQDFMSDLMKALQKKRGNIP

Row | Substance | effect of a mutation on the interaction
1 | Talin-1 (Mus musculus), P26039 V871Y | decreasing interaction strength
2 | Talin-1 (Mus musculus), P26039 V1540Y | decreasing interaction strength
3 | Talin-1 (Mus musculus), P26039 V871Y;V1540Y | disrupting interaction strength
